# Assay results as given in patent publication US10370436B2, “Anti-pseudomonas Psl binding molecules and uses thereof” (priority 2011, dated 2019).
# Test system: Psl (enriched carbohydrate purified from PAO1ΔwbpL/algD/pelA)
# Assay: Psl capture binding assay (FORTEBIO OCTET 384)
# Set-up: species or system Pseudomonas aeruginosa
# Details: FIG. 3K; for capture of Psl antigen by biosensor-bound antibody: antibody bound to aminopropylsilane biosensors
# Description: To confirm that all of the antibodies bound to the same antigen, a Psl capture binding assay was performed using a FORTEBIO® OCTET® 384 instrument as described above. The antigen was proteinase K-treated enriched carbohydrate purified from PAO1ΔwbpL/algD/pelA (O-antigen-, alginate- and Pel exopolysaccharide-deficient). Individual antibodies were bound to aminopropylsilane biosensors followed by blocking and the addition of the enriched carbohydrate antigen. After washing to remove unbound antigen, binding of unlabelled mAbs to captured antigen was assessed.
Molecule,reactivity of unlabelled mAb to captured Psl,capture of Psl antigen by biosensor-bound antibody
"WapR-001: anti-Psl antibody, VH SEQ ID NO: 5 and VL SEQ ID NO: 6 (antibody, V domains shown, WapR-001 VH; WapR-001 VL) VH: EVQLLESGGGLVQPGGSLRLSCSASGFTFSRYPMHWVRQAPGKGLEYVSDIGTNGGSTNYADSVKGRFTISRDNSKNTVYLQMSSLRAEDTAVYHCVAGIAAAYGFDVWGQGTMVTVSS VL: QAGLTQPASVSGSPGQSITISCTGTSSDIATYNYVSWYQQHPGKAPKLMIYEGTKRPSGVSNRFSGSKSGNTASLTISGLQAEDEADYYCSSYARSYTYVFGTGTELTVL",reacted,capable of capturing antigen
"WapR-007: antibody, VH SEQ ID NO: 13 and VL SEQ ID NO: 14 (antibody, V domains shown, WapR-007 VH; WapR-007 VL) VH: EVQLVQSGADVKKPGASVRVTCKASGYTFTGHNIHWVRQAPGQGLEWMGWINPDSGATSYAQKFQGRVTMTRDTSITTAYMDLSRLRSDDTAVYYCATDTLLSNHWGQGTLVTVSS VL: SSELTQDPAVSVALGQTVRITCQGDSLRSYYTNWFQQKPGQAPLLVVYAKNKRPPGIPDRFSGSSSGNTASLTITGAQAEDEADYYCHSRDSSGNHVVFGGGTKLTVL",Minimal reactivity,capable of capturing antigen
"WapR-002: anti-Psl antibody, VH SEQ ID NO: 7 and VL SEQ ID NO: 8 (antibody, V domains shown, WapR-002 VH; WapR-002 VL) VH: QVQLVQSGGGLVQPGGSLRLSCSASGFTFSSYPMHWVRQAPGKGLDYVSDISPNGGSTNYADSVKGRFTISRDNSKNTLFLQMSSLRAEDTAVYYCVMGLVPYGFDIWGQGTLVTVSS VL: QTVVTQPASVSGSPGQSITISCTGTSSDVGGYNYVSWYQQHPGKAPKLMIYEVSNRPSGVSNHFSGSKSGNTASLTISGLQAEDEADYYCSSYTTSSTYVFGTGTKVTVL",reacted,capable of capturing antigen
"WapR-003: anti-Psl antibody, VH SEQ ID NO: 9 and VL SEQ ID NO: 10 (antibody, V domains shown, WapR-003 VH; WapR-003 VL) VH: QMQLVQSGGGLVQPGGSLRLSCSASGFTFSSYPMHWVRQAPGKGLDYVSDISPNGGATNYADSVKGRFTISRDNSKNTVYLQMSSLRAEDTAVYYCVMGLVPYGFDNWGQGTMVTVSS VL: QTVVTQPASVSASPGQSITISCAGTSGDVGNYNFVSWYQQHPGKAPKLLIYEGSQRPSGVSNRFSGSRSGNTASLTISGLQAEDEADYYCSSYARSYTYVFGTGTKLTVL",reacted,capable of capturing antigen
